Source: patent publication US20230357447A1 (JANUX THERAPEUTICS, published 2023)
Like-named read-outs stand apart in the source and are kept apart here. Ends that are not written are not given here.

How the values were obtained:
[1] = biological target: T1, Ab-12, anti-PD-L1xCD28 non-masked antibody in Vh format; assay: competition ELISA: peptide titrated against 5 nM Ab-12; binding of Ab-12 to captured biotinylated CD28 antigen is read
T1 construct: also called PDL1xCD28 non-masked (Vh)

[2] = biological target: T1, Ab-12, anti-PD-L1xCD28 non-masked …; assay: as above; remark: listed apart in the source
[3] = biological target: T2, anti-CD28 scFv (VH-linker 1-VL) (biotinylated (site not stated)); assay: phage ELISA; biotinylated scFv on neutravidin plate; anti-M13-HRP;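 also: crude clonal phage supernatant added to wells pre-incubated with soluble CD28 protein or only blocking buffer, then washed, bound phage read out with an HRP-linked anti-M13 antibody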
T2 construct: Captured as biotinylated scFv on neutravidin coated plates in the phage ELISA

[4] = biological target: T2, anti-CD28 scFv (VH-linker 1-VL); assay: phage ELISA; scFv wells pre-incubated with soluble CD28 (competitor);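 also: crude clonal phage supernatants added to wells pretreated with soluble CD28 in blocking buffer, bound phage read via HRP-linked anti-M13 antibody, reference wells got blocking buffer only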
[5] = biological target: Anti-CD28 scFv (VH-linker 1-VL); assay: phage ELISA: biotinylated anti-CD28 scFv on neutravidin plate, clonal phage supernatant, anti-M13-HRP;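 also: before phage addition, wells were preincubated either with soluble CD28 protein in blocking buffer or with blocking buffer only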
[6] = biological target: Anti-CD28 scFv (VH-linker 1-VL); assay: phage ELISA: biotinylated anti-CD28 scFv on neutravidin plate, clonal phage supernatant, anti-M13-HRP; wells pre-incubated with soluble CD28 (competitor);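 as to Phage binding ELISA CD28 scFv signal in presence of CD28: wells pretreated with soluble CD28 protein in blocking buffer before phage addition, no wash in between, reference wells got blocking buffer only, bound phage detected after washing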

Row | Binder | Phage binding ELISA CD28 scFv signal [5] | Phage binding ELISA CD28 scFv signal in presence of CD28 [6] | other results
1 | MDWCPIDLWNECFF (cysteine pairing not given here; also: biotinylated, site not given here, Synthetic biotinylated peptide loaded on streptavidin biosensors) [Peptide-31] |  |  | IC50 [1]: 1770 nM
2 | MDWCPIHLWHVCFN (cysteine pairing not given here; also: biotinylated, site not given here, Synthetic biotinylated peptide loaded on streptavidin biosensors) [Peptide-32] |  |  | IC50 [1]: 970 nM
3 | MDWCPIYLWSECFN (cysteine pairing not given here; also: biotinylated, site not given here, Synthetic biotinylated peptide loaded on streptavidin biosensors) [Peptide-33] |  |  | IC50 [1]: 160 nM
4 | MNWCPKDIWYLCFN (cysteine pairing not given here; also: biotinylated, site not given here, Synthetic biotinylated peptide loaded on streptavidin biosensors) [Peptide-34] |  |  | IC50 [1]: 1410 nM
5 | MDWCPLHMWHECFS (cysteine pairing not given here; also: biotinylated, site not given here, Synthetic biotinylated peptide loaded on streptavidin biosensors) [Peptide-35] |  |  | IC50 [1]: 1270 nM
6 | MDWCPLYLWNECFN (cysteine pairing not given here; also: biotinylated, site not given here, Synthetic biotinylated peptide loaded on streptavidin biosensors) [Peptide-36] |  |  | IC50 [1]: 400 nM
7 | MDWCPRDLWDLCFA (cysteine pairing not given here; also: biotinylated, site not given here, Synthetic biotinylated peptide loaded on streptavidin biosensors) [Peptide-37] |  |  | IC50 [1]: 1110 nM
8 | MDWCPRDLWHECFA (cysteine pairing not given here; also: biotinylated, site not given here, Synthetic biotinylated peptide loaded on streptavidin biosensors) [Peptide-38] |  |  | IC50 [1]: 350 nM
9 | MDWCPRSLWHECFA (cysteine pairing not given here; also: biotinylated, site not given here, Synthetic biotinylated peptide loaded on streptavidin biosensors) [Peptide-47] |  |  | IC50 [2]: 450 nM
10 | MDWCPRDLWHLCFS (cysteine pairing not given here; also: biotinylated, site not given here, Synthetic biotinylated peptide loaded on streptavidin biosensors) [Peptide-39] |  |  | IC50 [1]: 480 nM
11 | MDWCPRDLWSECFF (cysteine pairing not given here; also: biotinylated, site not given here, Synthetic biotinylated peptide loaded on streptavidin biosensors) [Peptide-40] |  |  | IC50 [2]: 250 nM
12 | MDWCPRDLWVHCFA (cysteine pairing not given here; also: biotinylated, site not given here, Synthetic biotinylated peptide loaded on streptavidin biosensors) [Peptide-41] |  |  | IC50 [2]: 150 nM
13 | MDWCPRDMWDECFA (cysteine pairing not given here; also: biotinylated, site not given here, Synthetic biotinylated peptide loaded on streptavidin biosensors) [Peptide-42] |  |  | IC50 [2]: 440 nM
14 | MDWCPRDMWSECFA (cysteine pairing not given here; also: biotinylated, site not given here, Synthetic biotinylated peptide loaded on streptavidin biosensors) [Peptide-43] |  |  | IC50 [2]: 240 nM
15 | MDWCPRDLWYVCFA (on phage (pIII fusion)) [Phage-321 clonal phage peptide] |  |  | CD28 scFv signal [3]: 2.22; CD28 scFv signal in presence of CD28 [4]: 0.138
16 | INLCPTPMWNRCWL (Clonal phage from the Peptide-9 library) [Phage-423] | 0.103 | 0.101 | 
17 | ITQCPSTMWNRCSV (Clonal phage from the Peptide-9 library) [Phage-424] | 0.098 | 0.108 | 
18 | MDLCPTAMWNRCFY (Clonal phage from the Peptide-9 library) [Phage-425] | 0.097 | 0.084 | 
19 | MFLCPSAMWNRCFY (Clonal phage from the Peptide-9 library) [Phage-426] | 0.094 | 0.114 | 
20 | VILCPTTMWNRCFH (Clonal phage from the Peptide-9 library) [Phage-427] | 0.072 | 0.084 | 
21 | MNWCPSTMWNRCLT (Clonal phage from the Peptide-9 library) [Phage-428] | 0.065 | 0.07 | 
22 | IHLCHWVPWIKCSH (Clonal phage from the Peptide-9 library) [Phage-430] |  | 2.51 | 

Row | Binder | Phage binding ELISA CD28 scFv signal [5] | Phage binding ELISA CD28 scFv signal in presence of CD28 [6] | other results
23 | MAWCPADQWHECFN (Clonal phage from the Peptide-9 library) [Phage-431] | 1.84 | 0.456 | 
24 | IDWCPIIQGLPCFA (Clonal phage from the Peptide-9 library) [Phage-432] | 0.368 | 0.065 | 
25 | MAWCPWAQFDECLA (Clonal phage from the Peptide-9 library) [Phage-433] | 0.071 | 0.078 | 
26 | MAWCPWASFDECLA (Clonal phage from the Peptide-9 library) [Phage-448] | 0.089 | 0.109 | 
27 | IVWCPTTQWNRCAT (Clonal phage from the Peptide-9 library) [Phage-434] | 0.067 | 0.083 | 
28 | MDWCPRDRWVDCYA (Clonal phage from the Peptide-9 library) [Phage-435] | 1.48 | 0.403 | 
29 | MDWCPRDRWADCFN (Clonal phage from the Peptide-9 library) [Phage-436] | 1.35 | 0.08 | 
30 | MDWCPVDRWADCFN (Clonal phage from the Peptide-9 library) [Phage-437] | 1.16 | 0.315 | 
31 | MDWCPRDRWVDCFN (Clonal phage from the Peptide-9 library) [Phage-440] | 0.911 | 0.132 | 
32 | MDWCPRDRWDDCFF (Clonal phage from the Peptide-9 library) [Phage-441] | 0.899 | 0.183 | 
33 | MDWCPRDRWDDCFN (Clonal phage from the Peptide-9 library) [Phage-446] | 0.45 | 0.077 | 
34 | MDWCPMSRWAFCFD (Clonal phage from the Peptide-9 library) [Phage-438] | 1 | 0.115 | 
35 | MDWCPRDRWDVCFA (Clonal phage from the Peptide-9 library) [Phage-439] | 0.924 | 0.096 | 
36 | IYWCPIDRWNDCYN (Clonal phage from the Peptide-9 library) [Phage-442] | 0.867 | 0.164 | 
37 | MDWCPMTRWNDCYF (Clonal phage from the Peptide-9 library) [Phage-443] | 0.671 | 0.078 | 
38 | MDWCPRARWHDCFF (Clonal phage from the Peptide-9 library) [Phage-445] | 0.497 | 0.138 | 
39 | MDWCPRDRWDVCYY (Clonal phage from the Peptide-9 library) [Phage-447] | 0.074 | 0.073 | 
40 | MVDCPLISFDECLA (Clonal phage from the Peptide-9 library) [Phage-449] | 0.07 | 0.076 | 
41 | EDWCPTDVWPYCFS (Clonal phage from the Peptide-9 library) [Phage-450] | 0.711 | 0.157 | 
42 | MDWCPRFWWHECYA (Clonal phage from the Peptide-9 library) [Phage-451] | 2.4 | 0.503 | 
43 | MDWCPRDWWHMCFN (Clonal phage from the Peptide-9 library) [Phage-452] | 2.12 | 0.243 | 
44 | MDWCPSDYWYVCFA (Clonal phage from the Peptide-9 library) [Phage-453] | 0.707 | 0.08 | 
